{"source": "patent US20130115676", "tested_on": "T1, SapI (Saccharopolyspora sp.)", "T1 sequence": "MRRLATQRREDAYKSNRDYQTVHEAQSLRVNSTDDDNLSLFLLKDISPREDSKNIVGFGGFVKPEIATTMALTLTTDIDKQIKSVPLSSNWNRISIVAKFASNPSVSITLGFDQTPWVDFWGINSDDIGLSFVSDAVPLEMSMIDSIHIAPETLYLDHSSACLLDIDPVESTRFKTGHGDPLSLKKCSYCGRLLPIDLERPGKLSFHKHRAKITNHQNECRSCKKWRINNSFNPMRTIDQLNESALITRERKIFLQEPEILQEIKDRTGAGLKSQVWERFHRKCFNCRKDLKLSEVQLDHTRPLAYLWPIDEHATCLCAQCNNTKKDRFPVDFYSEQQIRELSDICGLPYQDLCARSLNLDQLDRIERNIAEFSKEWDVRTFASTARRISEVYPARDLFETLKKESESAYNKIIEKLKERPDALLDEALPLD", "assay": "cleavage_in_vitro", "settings": "NEB4, 10 mM Mg acetate, 37 C", "data": [{"substance": "lambda DNA", "values": [{"measurement": "activity (fidelity index)", "value": 16}]}]}
